The text below walks through data of patent publication US20210389324.

The test system of series [1] is CFP-TRIM14-YFP 25-residue substrate.

“Recombinant VEEV nsP2-thioredoxin Protease containing residues 457-792”: in series [1], the Km was 21 µM, the Vmax was determined as 0.056 U/mg and the “cleavage of CFP-YFP substrate” value is recorded as “VEEV nsP2 cysteine protease”. In the series with CFP-V12-YFP, the Km amounted to 12 µM, the Vmax was 0.059 U/mg and the “cleavage of CFP-YFP substrate” value was “VEEV nsP2 cysteine protease”.

Usually Km stands for the concentration of substrate that gives half-maximal velocity.
